Measurements published in patent US20200216522A1 (published 2020).

Molecular target: full-length human Tau (Tau441; 2N4R), recombinant (UniProt P10636 1-758)
Experiment: SPR (Biacore); 25°C

Chain of full-length human Tau (Tau441; 2N4R), recombinant (P10636 other isoform, or with tags, fused parts or gaps): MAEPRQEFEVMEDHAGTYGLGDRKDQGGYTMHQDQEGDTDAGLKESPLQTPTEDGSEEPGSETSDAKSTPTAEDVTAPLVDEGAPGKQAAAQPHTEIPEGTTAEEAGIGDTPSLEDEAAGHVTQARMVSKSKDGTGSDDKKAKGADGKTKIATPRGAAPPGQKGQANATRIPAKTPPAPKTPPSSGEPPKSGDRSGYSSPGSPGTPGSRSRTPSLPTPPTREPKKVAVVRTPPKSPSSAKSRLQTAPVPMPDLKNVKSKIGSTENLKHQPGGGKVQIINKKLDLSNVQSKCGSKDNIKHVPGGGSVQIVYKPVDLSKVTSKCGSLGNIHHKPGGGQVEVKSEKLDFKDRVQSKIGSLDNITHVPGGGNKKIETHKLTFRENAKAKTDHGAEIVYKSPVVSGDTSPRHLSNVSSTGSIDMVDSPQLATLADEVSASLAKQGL

Kd [nM] | Binder
0.0946 | chimeric IgG clone 1G7 (antibody, V domains shown) VH: EVQLQQSGAEVVRPGASVKLSCTTSGFNIKDSLMHWLKQRPEQGLEWIGWIDPEDGETKYAPKFQDKATITADTSSNTAYLQLSSLTSGDTAIYYCARRDWEGPWGQGTLVTVSA VL: not shown
0.155 | chimeric IgG clone 1A5 (antibody, V domains shown) VH: EVQLQQSGAELVRPGASVKLSCTASGFNIKDSLIHWVKQRPEQGLEWIGWIDPEDGETKYAPKFQDKATKTADTSSNTAYLQLSSLTSEDTAIYYCASGEWDYWGQGTSVTVSS VL: not shown
